Reference: patent US20060275811A1 (CANON, published 2006)

Target: T1, hen egg-white lysozyme (hen, UniProt P00698 19-147)
T1 construct: mature; also called HEL; target substance
Experiment: SPR (BIAcore X), HEL amine-coupled to CM5 chip, polypeptide at 50, 100 and 200 nM in PBS-T
Protocol: The strains are cultured at 30° C. for 16 hours in ampicillin (100 μg/ml)-selective LB medium. IPTG is added thereto at the final concentration of 1 mM, followed by additional 16-hour culture to induce protein expression. The bacterial cells collected by centrifugation are subjected to osmotic pressure treatment (the bacterial cells are mixed with 0.5 M sucrose solution and supplemented with a 5-fold volume of pure water) and disrupted by French press to obtain as soluble fractions, the proteins of interest present in the E. coli periplasms. Next, the functional polypeptide chains are purified with HEL columns (HEL is adsorbed and immobilized onto CNBr-activated Sepharose 4B (Code No. 17-0430-01 (Amersham)); the immobilization is performed according to the accompanying protocol). The binding ability between the functional polypeptides and the target substances (HEL) is evaluated by using BIAcore (registered trademark) X (SPR measurement apparatus). […] Next, the molarity of the functional polypeptide chain is adjusted to 50 nM, 100 nM and 200 nM for the first functional polypeptide chain (HyHEL10 scFv-(G4S)3-WinZipA1), the second functional polypeptide chain (D1.3 scFv-(G4S)3-WinZipB1) and a 1:1 mixture of the first and second functional polypeptide chains by using PBS-T (0.1% Tween 20) buffer. […]

T1 sequence (P00698 19-147): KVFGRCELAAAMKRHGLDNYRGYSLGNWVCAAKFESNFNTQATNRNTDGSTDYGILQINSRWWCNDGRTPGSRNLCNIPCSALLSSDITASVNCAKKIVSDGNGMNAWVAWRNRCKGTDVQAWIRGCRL

Kd: 0.3 nM
B1: HyHEL10 scFv-(G4S)3-WinZipA1 (scFv)
scFv: DIQLQESGPSLVKPSQTLSLTCSVTGDSITSDYWSWIRKFPGNRLEYMGYVSYSGSTYYNPSLKSRISITRDTSKNQYYLDLNSVTTEDTATYYCANWDGDYWGQGTLVTVSAGGGGSGGGGSGGGGSDIVLTQSPATLSVTPGNSVSLSCRASQSIGNNLHWYQQKSHESPRLLIKYASQSISGIPSRFSGSGSGTDFTLSINSVETEDFGMYFCQQSNSWPYTFGGGTKLIITAGGGGSGGGGSGGGGSTVAQLEEKVKTLRAQNYELKSRVQRLREQVAQLA
notes: Secreted from E. coli with the pelB signal of a modified pET-20b(+) vector and purified on a HEL column; also called first functional polypeptide chain; first polypeptide chain
